Measured values published in article PMC7450122.

Each substance was assayed against GST-p65, purified recombinant (UniProt Q04206) (assay: alanine-scanning peptide array probed with GST-p65, anti-GST immunoblot).
UniProt Q04206, sequence (Q04206 whole entry, looked up): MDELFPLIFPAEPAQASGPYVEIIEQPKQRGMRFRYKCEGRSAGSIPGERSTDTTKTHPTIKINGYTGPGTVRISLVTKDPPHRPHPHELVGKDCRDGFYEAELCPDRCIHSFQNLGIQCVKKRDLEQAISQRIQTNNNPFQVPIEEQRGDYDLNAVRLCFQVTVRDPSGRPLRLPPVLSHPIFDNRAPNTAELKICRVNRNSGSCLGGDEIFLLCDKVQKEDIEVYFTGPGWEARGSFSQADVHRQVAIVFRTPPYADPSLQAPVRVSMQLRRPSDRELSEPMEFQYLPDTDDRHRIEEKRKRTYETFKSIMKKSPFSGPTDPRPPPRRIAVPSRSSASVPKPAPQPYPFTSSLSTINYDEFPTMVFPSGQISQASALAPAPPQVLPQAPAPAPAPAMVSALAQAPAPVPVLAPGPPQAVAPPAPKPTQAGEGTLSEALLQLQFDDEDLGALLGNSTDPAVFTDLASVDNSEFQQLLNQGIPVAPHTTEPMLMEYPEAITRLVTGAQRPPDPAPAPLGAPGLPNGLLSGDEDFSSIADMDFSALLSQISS

Row | Substance | percent of parent (% of parent peptide)
1 | USP7 peptide C25 (877-894, …) F888A | < 60
2 | USP7 peptide C30 (897-914, …) K914A | < 60
3 | USP7 peptide C30 (897-914, …) E905A | < 60
4 | USP7 peptide A23 (629-646, …) R634A | < 60
5 | USP7 peptide C13 (829-846, …) D833A | < 60
6 | USP7 peptide C30 (897-914, …) F903A | < 60
7 | USP7 peptide C30 (897-914, …) L899A | < 60
8 | USP7 peptide C25 (877-894, …) F894A | < 60
9 | USP7 peptide A23 (629-646, …) K633A | < 60
10 | USP7 peptide C13 (829-846, …) M835A | < 60
11 | USP7 peptide C20 (857-874, …) Q872A | < 60
12 | USP7 peptide C13 (829-846, …) Y845A | < 60
13 | USP7 peptide C13 (829-846, …) F839A | < 60
14 | USP7 peptide C25 (877-894, …) D887A | < 60
